Assay results taken from doi:10.1101/2021.07.28.453719.

What was measured:
Experiment in all cases: ITC
[1] = molecular target: second bromodomain (BD2) of BRD4 (human)
[2] = molecular target: BRD3-L68AzF mutant (photo-responsive bromodomain analogue) (human) (UniProt Q15059)
[3] = molecular target: first bromodomain (BD1) of BRDT, wild type (human)
[4] = molecular target: BRDT-L61AzF mutant (photo-responsive bromodomain analogue) (human)
[5] = molecular target: first bromodomain (BD1) of BRD2, wild type (human)
[6] = molecular target: BRD2-L108AzF mutant (photo-responsive bromodomain analogue) (human)

ILF3 variant peptide AKacGALLKacG (aa 99-106) 15 carrying L102A
Kd [1]: 57 µM

diacetylated ILF3 peptide 10 (AKacGLLLKacG)
Kd [1]: 33 µM

tetra-acetylated histone H4 peptide (H4Kac4) 2 (from UniProt P62805 2-22)
Kd [2]: 14.2 µM
Kd [3]: 13.7 µM
Kd [4]: 13.5 µM
Kd [5]: 27.8 µM
Kd [6]: 93.5 µM
